For series [1], the system named is LOS4 ATPase. Kind of series: Steady-state ATPase assay of LOS4-His. Type of series: biochemical, Arabidopsis thaliana. The note with it: for stimulation of LOS4 ATPase activity in the absence of InsP6: 1 μM LOS4-His, 2 mM ATP, 2 μM MBP-Gle1C or variant. How it is done:
A steady-state ATPase assay was performed as described by Alcázar-Román et al. (Inositol hexakisphosphate and Gle1 activate the DEAD-box protein Dbp5 for nuclear mRNA export. Nat. Cell Biol. 8: 711-716, 2006) with slight modifications. The ATPase assay was performed with a LOS4-His protein in a 96-well plate using a buffer containing 20 mM HEPES (pH 7.5), 150 mM NaCl, 3 mM MgCl2, 1 mM DTT, 2 mM ATP, 6 mM phosphoenolpyruvate, 1.2 mM NADH, 1 mg/ml BSA and 2% (v/v) pyruvate kinase/lactate dihydrogenase (Sigma-Aldrich) in a total volume of 100 μl. Polyadenylic acid was added at 50 μg/ml or different concentrations as described above. Absorbance at 340 nm was measured using a VersaMax absorbance microplate reader (Molecular Devices), and the data were analyzed using SoftMax Pro software (Molecular Devices).
Gle1 and Gle1C (aa residues 244-611) were cloned into a pMAL C2X vector (New England Biolabs) for MBP fusion, LOS4 was cloned into a pET-29a vector for His fusion. MBP-Gle1 and MBP-Gle1C proteins were expressed in a BL21 (DE3) strain, and LOS4-His proteins were expressed in a Rosseta (DE3) strain of Escherichia coli. Cells were grown at 37° C. to an A600 of 0.4, shifted to 16° C., and induced by 0.25 mM IPTG for 16 hours. The MBP- and His-fusion proteins were purified following the manufacturer's introductions using MBP Excellose (Bioprogen) and His60 Ni Superflow™ resin (Clontech), respectively.

Series [2] addresses 6x-histidine-fused LOS4 (LOS4-His) (Arabidopsis) (UniProt Q93ZG7).
Series [3] has the same target. The source holds these as a separate data set.
For series [4], the target named is T1, LOS4 RNA helicase activity (Arabidopsis thaliana, UniProt Q93ZG7).
T1 construct: LOS4 was cloned into a pET-29a vector for His fusion; made in house; host or cells: Escherichia coli Rosetta (DE3) for LOS4-His; BL21 (DE3) for MBP-Gle1
T1 sequence (Q93ZG7 1-496): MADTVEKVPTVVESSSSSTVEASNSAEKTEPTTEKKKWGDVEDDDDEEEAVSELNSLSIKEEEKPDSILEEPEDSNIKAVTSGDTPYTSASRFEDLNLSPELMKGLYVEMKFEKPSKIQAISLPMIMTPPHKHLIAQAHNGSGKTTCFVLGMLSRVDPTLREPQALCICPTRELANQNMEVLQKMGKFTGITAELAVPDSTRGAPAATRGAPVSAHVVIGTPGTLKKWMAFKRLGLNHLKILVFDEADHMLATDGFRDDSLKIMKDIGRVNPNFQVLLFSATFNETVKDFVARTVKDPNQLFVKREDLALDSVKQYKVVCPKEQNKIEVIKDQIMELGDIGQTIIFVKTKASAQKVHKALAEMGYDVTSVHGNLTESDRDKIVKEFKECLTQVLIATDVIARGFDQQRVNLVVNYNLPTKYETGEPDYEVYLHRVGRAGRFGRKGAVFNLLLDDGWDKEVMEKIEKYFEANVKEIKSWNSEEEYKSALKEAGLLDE
Kind of series: In vitro nucleic acid-melting assay with hairpin-shaped molecular beacons. In kind it is biochemical. To be noted: in the presence of ATP; LOS4-His:MBP-Gle1 1:1, 1:2, 1:4 or LOS4-His only. The procedure: A nucleic acid-melting assay was performed as described by Kim et al. (Cold shock domain proteins and glycine-rich RNA-binding proteins from Arabidopsis thaliana can promote the cold adaptation process in Escherichia coli. Nucleic Acids Res. 35: 506-516, 2007) using 78-nucleotide-long, 9-bp-containing, hairpin-shaped molecular beacons conjugated with a fluorophore (tetramethylrhodamine) and a quencher (Dabcyl). Spectrofluorometry was performed using a fluorescence spectrophotometer (Hitachi F-2000) at an excitation wavelength of 555 nm and an emission wavelength of 575 nm.

Series [5] addresses T2, LOS4-His (Arabidopsis thaliana, UniProt Q93ZG7).
T2 construct: LOS4 was cloned into a pET-29a vector for His fusion; made in house; host or cells: Escherichia coli Rosetta (DE3) for LOS4-His; BL21 (DE3) for MBP-Gle1
T2 sequence (Q93ZG7 1-496): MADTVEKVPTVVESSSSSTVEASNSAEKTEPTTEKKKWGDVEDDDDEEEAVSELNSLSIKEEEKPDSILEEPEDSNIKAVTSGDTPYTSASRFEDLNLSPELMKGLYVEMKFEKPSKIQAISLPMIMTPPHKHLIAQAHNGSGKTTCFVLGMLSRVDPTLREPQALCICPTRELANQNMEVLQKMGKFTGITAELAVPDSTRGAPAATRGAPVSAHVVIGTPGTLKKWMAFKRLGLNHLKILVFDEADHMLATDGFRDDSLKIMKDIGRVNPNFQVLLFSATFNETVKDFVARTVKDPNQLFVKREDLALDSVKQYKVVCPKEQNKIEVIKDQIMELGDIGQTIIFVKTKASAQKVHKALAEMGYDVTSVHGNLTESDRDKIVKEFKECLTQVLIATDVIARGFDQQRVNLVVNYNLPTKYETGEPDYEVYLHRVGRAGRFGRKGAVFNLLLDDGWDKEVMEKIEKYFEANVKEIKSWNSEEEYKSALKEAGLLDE
Kind of series: In vitro pull-down assay. In kind it is binding. To be noted: Coomassie blue staining of eluted proteins. How it is done:
MBP and MBP-Gle1 proteins immobilized on MBP Excellose (Bioprogen) were incubated with LOS4-His proteins for 2 hours at room temperature. Similarly, LOS4-His proteins immobilized on a His60 Ni Superflow™ resin (Clontech) were incubated with MBP or MBP-Gle1 for 2 hours at room temperature. After extensive washing of the resins, the bound proteins were eluted with 2× SDS sample buffer, and the eluted proteins were visualized by Coomassie blue staining.

The results in this text go back to US10793871B2, “Nucleic acid molecule encoding glei protein variant with increased phytic acid sensitivity and use thereof” (University-Industry Foundation, Yonsei University, priority 2015, dated 2020).

For “polyadenylic acid [RNA, reference compound]”, the “LOS4 ATPase activity” value in series [1] (LOS4-His 1 μM, ATP 2 mM, RNA 50 μg/ml only) is “moderately stimulated LOS4 ATPase activity”.
MBP-Gle1C (ID): the LOS4 ATPase activity in the absence of InsP6 (fold decrease) in series [2] turned out to be 2.
Take `O=S(=O)(O)OC1C(OS(=O)(=O)O)C(OS(=O)(=O)O)C(OS(=O)(=O)O)C(OS(=O)(=O)O)C1OS(=O)(=O)O` (centres unmarked) [InsP6 analog, reference compound]: in series [1] (LOS4-His 1 μM, ATP 2 mM, RNA, MBP-Gle1 2 μM plus 10 μM InsP6 analog), the “further stimulation of LOS4 ATPase activity” value is reported as “did not do so”.
For the molecule “MBP fusion protein of the carboxyl-terminal domain of Gle1 (MBP-Gle1C; amino acid residues 244-611)”, in series [3], the apparent kcat of LOS4-His ATPase worked out at 0.565 s⁻¹.

B1: MBP-Gle1: maltose-binding protein (MBP)-fused full-length Arabidopsis Gle1 (protein)
chain: MGIVLEPPCPKSVDGISIDPEPNWNFESLVAEIASVEKKLNGFSMYPQPITNTTLRMGRRGGGFVMHVSEDEMESDEGEESDDEEEEEDHSQICTAGKRFACDELYLSDESDEEFDHEPEYMMNKLGLAESALYEVINDHQTEIKDDIRNQVSVVETEIMNEIETSLSAIARVEKYSETRKEVERKLDLQYQRKVAEALDTHLTAVQREHKIKSQIEERKIRSEEAQEEARRKERAHQEEKIRQEKARAEAQMLAKIRAEEEKKEVERKAAREVAEKEVADRKAAEQKLAEQKAVIESVTGSSATSNAQAGGNSIRAAESALILENHRLKKLEELETTNQSLKSRSNENFSSFEKHIGRVIRQISGTKDSVSGKINDIVKIFKDPRCPVSISIAAFAKKMVTTKEKPNPFACSYVIVYINSQFPQVMDILLAEFHKACIYTVPKHIVNSQSAWDSDAYERLDSIMRLYGALVQTDIRVGNATNVHGIEHGWAWLARFLNKIPANRATATALNSFLQTAGFGLHQRYKSQFLKVVNVVREHFLQKLRAKKDTSDLLVIIAEITAYLDDRMYLKEPEGRAMKTTSTLSSELTAELNQPNYNQNYQRNDYRNYY
Turning to B1, in series [4], the “beacon fluorescence (LOS4 RNA helicase activity)” value is on record as “significant increase in fluorescence in a concentration-dependent manner”. Also, the “pull-down by nickel resin-bound LOS4-His” value in series [5] is on record as “could pull down MBP-Gle1”. Further, the “induction of LOS4 ATPase activity” value in series [1] (LOS4-His 1 μM, ATP 2 mM, RNA 50 μg/ml and MBP-Gle1 (full length) 2 μM) is listed as “threefold”.

B2: LOS4-His: 6×-histidine-fused LOS4, Arabidopsis DEAD-box ATPase/RNA helicase, homolog of yeast Dbp5 (protein)
chain: MADTVEKVPTVVESSSSSTVEASNSAEKTEPTTEKKKWGDVEDDDDEEEAVSELNSLSIKEEEKPDSILEEPEDSNIKAVTSGDTPYTSASRFEDLNLSPELMKGLYVEMKFEKPSKIQAISLPMIMTPPHKHLIAQAHNGSGKTTCFVLGMLSRVDPTLREPQALCICPTRELANQNMEVLQKMGKFTGITAELAVPDSTRGAPAATRGAPVSAHVVIGTPGTLKKWMAFKRLGLNHLKILVFDEADHMLATDGFRDDSLKIMKDIGRVNPNFQVLLFSATFNETVKDFVARTVKDPNQLFVKREDLALDSVKQYKVVCPKEQNKIEVIKDQIMELGDIGQTIIFVKTKASAQKVHKALAEMGYDVTSVHGNLTESDRDKIVKEFKECLTQVLIATDVIARGFDQQRVNLVVNYNLPTKYETGEPDYEVYLHRVGRAGRFGRKGAVFNLLLDDGWDKEVMEKIEKYFEANVKEIKSWNSEEEYKSALKEAGLLDE
Turning to B2, the “beacon fluorescence (LOS4 RNA helicase activity)” value in series [4] is “did not increase the fluorescence of the beacons”. Also, the “apparent kcat of LOS4-His” value in series [1] (LOS4-His (1 μM) alone, 0-2 mM ATP) was found to be 0.267 s⁻¹.

B3: MBP-Gle1C (IS1): MBP fusion of Arabidopsis Gle1C variant InsP6-Sensitive 1: mutation from A437 to K (protein)
chain: QEKARAEAQMLAKIRAEEEKKEVERKAAREVAEKEVADRKAAEQKLAEQKAVIESVTGSSATSNAQAGGNSIRAAESALILENHRLKKLEELETTNQSLKSRSNENFSSFEKHIGRVIRQISGTKDSVSGKINDIVKIFKDPRCPVSISIAAFAKKMVTTKEKPNPFACSYVIVYINSQFPQVMDILLAEFHKKCIYTVPKHIVNSQSAWDSDAYERLDSIMRLYGALVQTDIRVGNATNVHGIEHGWAWLARFLNKIPANRATATALNSFLQTAGFGLHQRYKSQFLKVVNVVREHFLQKLRAKKDTSDLLVIIAEITAYLDDRMYLKEPEGRAMKTTSTLSSELTAELNQPNYNQNYQRNDYRNYY
Consider B3, for which the “stimulation of LOS4 ATPase activity in the absence of InsP6” value (“stimulation … of InsP6” below) in series [1] (RNA, no InsP6) is listed as “activated LOS4 ATPase activity to similar degrees”. Moreover, in series [1] (with RNA, InsP6 0-100 μM), the “InsP6 concentration at which LOS4-stimulating activity increases above basal” value came out at 100 nM and the “InsP6 concentration giving maximum LOS4-stimulating activity” value is about 1 µM.

B4: MBP-Gle1C (ID): MBP fusion of Arabidopsis Gle1C variant InsP6-Dead: mutation from K436 to A (protein)
chain: QEKARAEAQMLAKIRAEEEKKEVERKAAREVAEKEVADRKAAEQKLAEQKAVIESVTGSSATSNAQAGGNSIRAAESALILENHRLKKLEELETTNQSLKSRSNENFSSFEKHIGRVIRQISGTKDSVSGKINDIVKIFKDPRCPVSISIAAFAKKMVTTKEKPNPFACSYVIVYINSQFPQVMDILLAEFHAACIYTVPKHIVNSQSAWDSDAYERLDSIMRLYGALVQTDIRVGNATNVHGIEHGWAWLARFLNKIPANRATATALNSFLQTAGFGLHQRYKSQFLKVVNVVREHFLQKLRAKKDTSDLLVIIAEITAYLDDRMYLKEPEGRAMKTTSTLSSELTAELNQPNYNQNYQRNDYRNYY
Turning to B4, the “stimulation … of InsP6” value in series [1] (RNA, no InsP6) is “reduced abilities to stimulate LOS4”. Besides, the “decrease in LOS4-stimulating activity in the absence of InsP6” value in series [1] (K436A mutation vs MBP-Gle1C, no InsP6) is on record as over 2 fold.

B5: MBP-Gle1C (IS2): MBP fusion of Arabidopsis Gle1C variant InsP6-Sensitive 2: double mutations from E433 to K and from A437 to K (protein)
chain: QEKARAEAQMLAKIRAEEEKKEVERKAAREVAEKEVADRKAAEQKLAEQKAVIESVTGSSATSNAQAGGNSIRAAESALILENHRLKKLEELETTNQSLKSRSNENFSSFEKHIGRVIRQISGTKDSVSGKINDIVKIFKDPRCPVSISIAAFAKKMVTTKEKPNPFACSYVIVYINSQFPQVMDILLAKFHKKCIYTVPKHIVNSQSAWDSDAYERLDSIMRLYGALVQTDIRVGNATNVHGIEHGWAWLARFLNKIPANRATATALNSFLQTAGFGLHQRYKSQFLKVVNVVREHFLQKLRAKKDTSDLLVIIAEITAYLDDRMYLKEPEGRAMKTTSTLSSELTAELNQPNYNQNYQRNDYRNYY
As to B5, the “stimulation … of InsP6” value in series [1] (RNA, no InsP6) is “reduced abilities to stimulate LOS4”. In series [1] (with RNA, InsP6 0-100 μM), the “InsP6 concentration at which LOS4-stimulating activity increases above basal” value is on record as 1 nM and the “InsP6 concentration giving full stimulation of LOS4 ATPase activity” value is 100 nM.
